In patent US10766952B2, “Methods for reducing migraine frequency in a subject in need thereof” (Beth Israel Deaconess Medical Center, Inc., priority 2017, dated 2020) one finds α-human koff and α-rat koff data, which are given here for 13 molecules.

For one test, the target named is T1, human α-CGRP (Homo sapiens, UniProt P06881).
T1 construct: 1-37 (WT); purchased; host or cells: synthetic peptide
T1 sequence (P06881 83-119 limits assumed): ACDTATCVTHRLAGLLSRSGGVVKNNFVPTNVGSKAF
As to the kind of experiment: Biacore affinity of antibody G1 Fab and variants to human α-CGRP. In kind it is binding. Conditions: 37° C., Fab, screening mode unless underlined. On the procedure:
(§1) Biacore assay for affinity determination. […] All Biacore assays were conducted in HBS-EP running buffer (10 mM HEPES pH 7.4, 150 mM NaCl, 3 mM EDTA, 0.005% v/v polysorbate P20). CGRP surfaces were prepared by diluting the N-biotinylated CGRP to a concentration of less than 0.001 mg/mL into HBS-EP buffer and injecting it across the SA sensor chip using variable contact times. Low capacity surfaces, corresponding to capture levels <50 response units (RU) were used for high-resolution kinetic studies, whereas high capacity surfaces (about 800 RU of captured CGRP) were used for concentration studies, screening, and solution affinity determinations. […] Samples were typically injected for lminute at 100 μL/min and dissociation times of at least 10 minutes were allowed. After each binding cycle, surfaces were regenerated with 25 mM NaOH in 25% v/v ethanol, which was tolerated over hundreds of cycles. An entire titration series (typically generated in duplicate) was fit globally to a 1:1 Langmuir binding model using the BlAevaluation program. This returned a unique pair of association and dissociation kinetic rate constants (respectively, kon and koff) for each binding interaction, whose ratio gave the equilibrium dissociation constant (KD=koff/[…]).
(§2) High-resolution analysis of binding interactions with extremely slow offrates. […] The protocol described above was used with the following modifications. The association rate constant (kon) was determined by injecting a 2-fold titration series (in duplicate) spanning 550 nM-1 nM for 30 seconds at 100 μL/min and allowing only a 30 second dissociation phase. The dissociation rate constant (koff) was determined by injecting three concentrations (high, medium, and low) of the same titration series in duplicate for 30 seconds and allowing a 2-hour dissociation phase. The affinity (KD) of each interaction was obtained by combining the kon and koff values obtained in both types of experiments, as shown in Table 4.
(§3) The binding affinities of Fab fragments were determined by Biacore by flowing them across CGRPs on a SA chip.
Background: In SPR one partner is held on a chip, and binding of the other changes the refractive index at the surface.

A further test addresses T2, rat α-CGRP (Rattus norvegicus, UniProt P01256).
T2 construct: rat α (1-37); host or cells: synthetic peptide
T2 sequence (P01256 83-119 limits assumed): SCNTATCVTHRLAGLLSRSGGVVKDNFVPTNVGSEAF
Kind of test: Biacore affinity of antibody G1 Fab and variants to rat α-CGRP. In kind it is binding. The following applies: 37° C., Fab, screening mode unless underlined. As to the method: as §1, §2, §3

B1: M46: G1 variant: L1 R28N; L2 G50A,L56T; H2 E54K,A57N,S58E,H61F; HC-FW3 L99T,A100V (antibody, V domains shown)
VH: EVQLVESGGGLVQPGGSLRLSCAASGFTFSNYWISWVRQAPGKGLEWVAEIRSKSDNEATFYAEAVKGRFTISRDNAKNSLYLQMNSLRAEDTAVYYCTVYFDYGLAIQNYWGQGTLVTVSS
VL: EIVLTQSPATLSLSPGERATLSCKASKNVTTYVSWYQQKPGQAPRLLIYAASNRYTGIPARFSGSGSGTDFTLTISSLEPEDFAVYYCSQSYNYPYTFGQGTKLEIK
B1 yielded a α-human koff with human α-CGRP of 0.000539 s⁻¹. The α-rat koff with rat α-CGRP came to 0.00294 s⁻¹.

B2: M49: G1 variant: L1 R28N; L2 G50A,L56T; H2 E54K,A57N,S58Y,H61F; HC-FW3 L99T,A100V (antibody, V domains shown)
VH: EVQLVESGGGLVQPGGSLRLSCAASGFTFSNYWISWVRQAPGKGLEWVAEIRSKSDNYATFYAEAVKGRFTISRDNAKNSLYLQMNSLRAEDTAVYYCTVYFDYGLAIQNYWGQGTLVTVSS
VL: EIVLTQSPATLSLSPGERATLSCKASKNVTTYVSWYQQKPGQAPRLLIYAASNRYTGIPARFSGSGSGTDFTLTISSLEPEDFAVYYCSQSYNYPYTFGQGTKLEIK
In the test with human α-CGRP, B2 came in with a α-human koff of 0.000595 s⁻¹. Besides, in the test with rat α-CGRP, the α-rat koff was determined as 0.0148 s⁻¹.

B3: M50: G1 variant: L1 R28N; L2 G50A,L56T; H2 E54K,A57R; HC-FW3 L99T,A100V (antibody, V domains shown)
VH: EVQLVESGGGLVQPGGSLRLSCAASGFTFSNYWISWVRQAPGKGLEWVAEIRSKSDRSATHYAEAVKGRFTISRDNAKNSLYLQMNSLRAEDTAVYYCTVYFDYGLAIQNYWGQGTLVTVSS
VL: EIVLTQSPATLSLSPGERATLSCKASKNVTTYVSWYQQKPGQAPRLLIYAASNRYTGIPARFSGSGSGTDFTLTISSLEPEDFAVYYCSQSYNYPYTFGQGTKLEIK
B3 returned a α-human koff with human α-CGRP of 0.000406 s⁻¹. In the test with rat α-CGRP, this molecule showed a α-rat koff of 0.0053 s⁻¹.

B4: M58: G1 variant: L1 R28N,T30D; L2 L56S; H2 E54K,A57N,S58I,H61F; HC-FW3 L99T,A100V (antibody, V domains shown)
VH: EVQLVESGGGLVQPGGSLRLSCAASGFTFSNYWISWVRQAPGKGLEWVAEIRSKSDNIATFYAEAVKGRFTISRDNAKNSLYLQMNSLRAEDTAVYYCTVYFDYGLAIQNYWGQGTLVTVSS
VL: EIVLTQSPATLSLSPGERATLSCKASKNVDTYVSWYQQKPGQAPRLLIYGASNRYSGIPARFSGSGSGTDFTLTISSLEPEDFAVYYCSQSYNYPYTFGQGTKLEIK
Take B4: in the test with human α-CGRP, the α-human koff came to 0.00195 s⁻¹. Further, the α-rat koff entry with rat α-CGRP is reported as “No binding”.

B5: M55: G1 variant: L1 R28N,T30A; L2 L56S; H2 E54K,A57N,S58E,E64D; HC-FW3 L99T,A100V (antibody, V domains shown)
VH: EVQLVESGGGLVQPGGSLRLSCAASGFTFSNYWISWVRQAPGKGLEWVAEIRSKSDNEATHYADAVKGRFTISRDNAKNSLYLQMNSLRAEDTAVYYCTVYFDYGLAIQNYWGQGTLVTVSS
VL: EIVLTQSPATLSLSPGERATLSCKASKNVATYVSWYQQKPGQAPRLLIYGASNRYSGIPARFSGSGSGTDFTLTISSLEPEDFAVYYCSQSYNYPYTFGQGTKLEIK
In the test with human α-CGRP, B5 displayed a α-human koff of 0.000478 s⁻¹. The α-rat koff in the test with rat α-CGRP turned out to be 0.00585 s⁻¹.

B6: M51: G1 variant: L1 R28N; L2 L56I; H2 E54K,A57G; HC-FW3 L99T,A100V (antibody, V domains shown)
VH: EVQLVESGGGLVQPGGSLRLSCAASGFTFSNYWISWVRQAPGKGLEWVAEIRSKSDGSATHYAEAVKGRFTISRDNAKNSLYLQMNSLRAEDTAVYYCTVYFDYGLAIQNYWGQGTLVTVSS
VL: EIVLTQSPATLSLSPGERATLSCKASKNVTTYVSWYQQKPGQAPRLLIYGASNRYIGIPARFSGSGSGTDFTLTISSLEPEDFAVYYCSQSYNYPYTFGQGTKLEIK
Take B6: the α-human koff in the test with human α-CGRP was determined as 0.000131 s⁻¹. In the test with rat α-CGRP, this molecule displayed a α-rat koff of 0.00118 s⁻¹.

B7: M57: G1 variant: L1 R28N,T30D; L2 L56S; H2 E54K,A57N,S58E; HC-FW3 L99T,A100V (antibody, V domains shown)
VH: EVQLVESGGGLVQPGGSLRLSCAASGFTFSNYWISWVRQAPGKGLEWVAEIRSKSDNEATHYAEAVKGRFTISRDNAKNSLYLQMNSLRAEDTAVYYCTVYFDYGLAIQNYWGQGTLVTVSS
VL: EIVLTQSPATLSLSPGERATLSCKASKNVDTYVSWYQQKPGQAPRLLIYGASNRYSGIPARFSGSGSGTDFTLTISSLEPEDFAVYYCSQSYNYPYTFGQGTKLEIK
Molecule B7 displayed a α-human koff with human α-CGRP of 0.000322 s⁻¹. This molecule also registered a α-rat koff in the test with rat α-CGRP of 0.0104 s⁻¹.

B8: M54: G1 variant: L1 R28N,T30A; L2 G50A; H2 E54K,A57N,S58P; HC-FW3 L99T,A100V (antibody, V domains shown)
VH: EVQLVESGGGLVQPGGSLRLSCAASGFTFSNYWISWVRQAPGKGLEWVAEIRSKSDNPATHYAEAVKGRFTISRDNAKNSLYLQMNSLRAEDTAVYYCTVYFDYGLAIQNYWGQGTLVTVSS
VL: EIVLTQSPATLSLSPGERATLSCKASKNVATYVSWYQQKPGQAPRLLIYAASNRYLGIPARFSGSGSGTDFTLTISSLEPEDFAVYYCSQSYNYPYTFGQGTKLEIK
In turn, B8 yielded a α-human koff with human α-CGRP of 0.00179 s⁻¹. The same molecule registered a α-rat koff in the test with rat α-CGRP of 0.00216 s⁻¹.

B9: M53: G1 variant: L1 R28N; L2 L56I; H2 E54K,A57N,S58G; HC-FW3 L99T,A100V (antibody, V domains shown)
VH: EVQLVESGGGLVQPGGSLRLSCAASGFTFSNYWISWVRQAPGKGLEWVAEIRSKSDNGATHYAEAVKGRFTISRDNAKNSLYLQMNSLRAEDTAVYYCTVYFDYGLAIQNYWGQGTLVTVSS
VL: EIVLTQSPATLSLSPGERATLSCKASKNVTTYVSWYQQKPGQAPRLLIYGASNRYIGIPARFSGSGSGTDFTLTISSLEPEDFAVYYCSQSYNYPYTFGQGTKLEIK
On to B9, for which the α-human koff with human α-CGRP was 0.000374 s⁻¹. For the same molecule, the α-rat koff with rat α-CGRP stood at 0.00191 s⁻¹.

B10: M52: G1 variant: L1 R28N; L2 L56I; H2 E54K,A57N,S58A; HC-FW3 L99T,A100V (antibody, V domains shown)
VH: EVQLVESGGGLVQPGGSLRLSCAASGFTFSNYWISWVRQAPGKGLEWVAEIRSKSDNAATHYAEAVKGRFTISRDNAKNSLYLQMNSLRAEDTAVYYCTVYFDYGLAIQNYWGQGTLVTVSS
VL: EIVLTQSPATLSLSPGERATLSCKASKNVTTYVSWYQQKPGQAPRLLIYGASNRYIGIPARFSGSGSGTDFTLTISSLEPEDFAVYYCSQSYNYPYTFGQGTKLEIK
With B10, the α-human koff with human α-CGRP was found to be 0.000281 s⁻¹. In addition, the α-rat koff with rat α-CGRP is 0.00229 s⁻¹.

B11: M48: G1 variant: L1 R28N; L2 G50A,L56T; H2 E54K,A57N,S58L; HC-FW3 L99T,A100V (antibody, V domains shown)
VH: EVQLVESGGGLVQPGGSLRLSCAASGFTFSNYWISWVRQAPGKGLEWVAEIRSKSDNLATHYAEAVKGRFTISRDNAKNSLYLQMNSLRAEDTAVYYCTVYFDYGLAIQNYWGQGTLVTVSS
VL: EIVLTQSPATLSLSPGERATLSCKASKNVTTYVSWYQQKPGQAPRLLIYAASNRYTGIPARFSGSGSGTDFTLTISSLEPEDFAVYYCSQSYNYPYTFGQGTKLEIK
In the test with human α-CGRP, B11 displayed a α-human koff of 0.000842 s⁻¹. In the test with rat α-CGRP, this molecule showed a α-rat koff of 0.0343 s⁻¹.

B12: M47: G1 variant: L1 R28N; L2 G50A,L56T; H2 E54K,A57N,S58G; HC-FW3 L99T,A100V (antibody, V domains shown)
VH: EVQLVESGGGLVQPGGSLRLSCAASGFTFSNYWISWVRQAPGKGLEWVAEIRSKSDNGATHYAEAVKGRFTISRDNAKNSLYLQMNSLRAEDTAVYYCTVYFDYGLAIQNYWGQGTLVTVSS
VL: EIVLTQSPATLSLSPGERATLSCKASKNVTTYVSWYQQKPGQAPRLLIYAASNRYTGIPARFSGSGSGTDFTLTISSLEPEDFAVYYCSQSYNYPYTFGQGTKLEIK
Take B12: the α-human koff with human α-CGRP amounted to 0.000332 s⁻¹. This molecule also displayed a α-rat koff with rat α-CGRP of 0.00823 s⁻¹.

B13: M56: G1 variant: L1 R28N,T30D; L2 L56S; H2 E54K,A57N,H61F; HC-FW3 L99T,A100V (antibody, V domains shown)
VH: EVQLVESGGGLVQPGGSLRLSCAASGFTFSNYWISWVRQAPGKGLEWVAEIRSKSDNSATFYAEAVKGRFTISRDNAKNSLYLQMNSLRAEDTAVYYCTVYFDYGLAIQNYWGQGTLVTVSS
VL: EIVLTQSPATLSLSPGERATLSCKASKNVDTYVSWYQQKPGQAPRLLIYGASNRYSGIPARFSGSGSGTDFTLTISSLEPEDFAVYYCSQSYNYPYTFGQGTKLEIK
The molecule B13 gave a α-human koff with human α-CGRP of 0.000479 s⁻¹. This molecule displayed a α-rat koff with rat α-CGRP of 0.00935 s⁻¹.
